{
  "source": "IntAct's records for PubMed 35512704",
  "parents": {"B1": {"name": "Mothers against decapentaplegic homolog 4 (Homo sapiens), Q13485 (parent)", "chain": "MDNMSITNTPTSNDACLSIVHSLMCHRQGGESETFAKRAIESLVKKLKEKKDELDSLITAITTNGAHPSKCVTIQRTLDGRLQVAGRKGFPHVIYARLWRWPDLHKNELKHVKYCQYAFDLKCDSVCVNPYHYERVVSPGIDLSGLTLQSNAPSSMMVKDEYVHDFEGQPSLSTEGHSIQTIQHPPSNRASTETYSTPALLAPSESNATSTANFPNIPVASTSQPASILGGSHSEGLLQIASGPQPGQQQNGFTGQPATYHHNSTTTWTGSRTAPYTPNLPHHQNGHLQHHPPMPPHPGHYWPVHNELAFQPPISNHPAPEYWCSIAYFEMDVQVGETFKVPSSCPIVTVDGYVDPSGGDRFCLGQLSNVHRTEAIERARLHIGKGVQLECKGEGDVWVRCLSDHAVFVQSYYLDREAGRAPGDAVHKIYPSAYIKVFDLRQCHRQMQQQAATAQAAAAAQAAAVAGNIPGPGSVGGIAPAISLSAAAGIGVDDLRRLCILRMSFVKGWGPDYPRQSIKETPCWIEIHLHRALQLLDEVLHTMPIADPQPLD", "partner": "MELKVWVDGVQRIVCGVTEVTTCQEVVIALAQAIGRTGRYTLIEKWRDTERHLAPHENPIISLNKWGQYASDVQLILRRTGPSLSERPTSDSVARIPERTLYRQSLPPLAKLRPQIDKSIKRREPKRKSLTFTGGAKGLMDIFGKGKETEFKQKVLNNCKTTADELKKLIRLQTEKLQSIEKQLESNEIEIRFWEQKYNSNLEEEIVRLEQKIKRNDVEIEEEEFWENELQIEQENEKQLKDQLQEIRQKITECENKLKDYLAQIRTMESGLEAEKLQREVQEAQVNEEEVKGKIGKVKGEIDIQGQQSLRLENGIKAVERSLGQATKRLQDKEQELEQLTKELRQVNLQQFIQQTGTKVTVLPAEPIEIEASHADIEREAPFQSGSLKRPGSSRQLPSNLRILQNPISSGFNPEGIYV"}, "B2": {"name": "Mothers against decapentaplegic homolog 4 (Homo sapiens), Q13485 (parent)", "chain": "B1 chain", "partner": "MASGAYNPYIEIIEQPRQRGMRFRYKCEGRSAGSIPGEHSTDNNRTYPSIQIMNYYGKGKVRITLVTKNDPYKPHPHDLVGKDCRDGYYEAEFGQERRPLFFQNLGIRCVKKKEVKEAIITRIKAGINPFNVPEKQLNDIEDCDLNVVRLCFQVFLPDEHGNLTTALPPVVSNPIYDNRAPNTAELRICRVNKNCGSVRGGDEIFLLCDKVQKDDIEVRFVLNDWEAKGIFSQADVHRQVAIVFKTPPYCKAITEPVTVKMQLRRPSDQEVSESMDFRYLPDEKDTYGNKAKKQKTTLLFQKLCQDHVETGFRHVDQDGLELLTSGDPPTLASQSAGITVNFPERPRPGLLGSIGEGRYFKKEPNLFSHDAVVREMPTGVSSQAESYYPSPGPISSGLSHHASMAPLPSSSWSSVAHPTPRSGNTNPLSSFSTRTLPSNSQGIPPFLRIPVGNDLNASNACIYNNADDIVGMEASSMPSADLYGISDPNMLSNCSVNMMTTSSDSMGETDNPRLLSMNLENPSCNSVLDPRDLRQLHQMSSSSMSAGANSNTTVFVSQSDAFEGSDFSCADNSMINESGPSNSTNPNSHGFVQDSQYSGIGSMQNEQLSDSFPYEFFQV"}, "B3": {"name": "Mothers against decapentaplegic homolog 4 (Homo sapiens), Q13485 (parent)", "chain": "B1 chain", "partner": "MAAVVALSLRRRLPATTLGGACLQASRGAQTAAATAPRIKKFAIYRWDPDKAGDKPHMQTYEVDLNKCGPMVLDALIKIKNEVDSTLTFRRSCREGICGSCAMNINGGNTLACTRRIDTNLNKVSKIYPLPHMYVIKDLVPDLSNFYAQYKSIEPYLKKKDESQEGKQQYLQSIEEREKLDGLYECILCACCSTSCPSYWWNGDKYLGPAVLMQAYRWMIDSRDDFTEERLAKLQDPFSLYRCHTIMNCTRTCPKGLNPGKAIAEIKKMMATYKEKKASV"}, "B4": {"name": "Mothers against decapentaplegic homolog 4 (Homo sapiens), Q13485 (parent)", "chain": "B1 chain", "partner": "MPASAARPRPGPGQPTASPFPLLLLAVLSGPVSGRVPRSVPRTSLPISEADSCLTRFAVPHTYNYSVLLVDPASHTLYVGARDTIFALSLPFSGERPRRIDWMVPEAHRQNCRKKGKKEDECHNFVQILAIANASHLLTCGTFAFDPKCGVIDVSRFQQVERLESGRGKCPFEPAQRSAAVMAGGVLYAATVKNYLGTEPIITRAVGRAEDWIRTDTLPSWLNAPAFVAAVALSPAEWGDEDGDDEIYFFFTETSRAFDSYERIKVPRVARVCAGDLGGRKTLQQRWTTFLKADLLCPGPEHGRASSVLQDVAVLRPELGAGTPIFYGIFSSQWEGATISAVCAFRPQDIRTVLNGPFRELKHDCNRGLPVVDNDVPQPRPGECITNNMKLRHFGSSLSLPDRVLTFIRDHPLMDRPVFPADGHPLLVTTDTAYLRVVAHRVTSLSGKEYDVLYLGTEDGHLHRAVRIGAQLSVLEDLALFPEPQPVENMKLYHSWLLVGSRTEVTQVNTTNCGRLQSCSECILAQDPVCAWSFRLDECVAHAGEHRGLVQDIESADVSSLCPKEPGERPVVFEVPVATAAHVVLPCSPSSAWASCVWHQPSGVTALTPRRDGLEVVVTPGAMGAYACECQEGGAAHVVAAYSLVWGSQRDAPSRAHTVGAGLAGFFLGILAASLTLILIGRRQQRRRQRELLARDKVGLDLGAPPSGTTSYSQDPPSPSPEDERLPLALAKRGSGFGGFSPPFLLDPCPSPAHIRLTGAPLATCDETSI"}},
  "data": [
    {"variants_of": "B1", "settings": "with rasf8_human RASSF8, Q8NHQ8", "values": [
      {"variant": "G386D", "effect of a mutation on the interaction": "with no effect"}
    ]},
    {"variants_of": "B1", "settings": "with rasf8_human RASSF8, Q8NHQ8", "remark": "another data set of the same source", "values": [
      {"variant": "G386D", "effect of a mutation on the interaction": "increasing interaction strength"}
    ]},
    {"variants_of": "B1", "settings": "with rasf8_human RASSF8, Q8NHQ8", "remark": "another data set of the same source", "values": [
      {"variant": "R361C", "effect of a mutation on the interaction": "with no effect"}
    ]},
    {"variants_of": "B1", "settings": "with rasf8_human RASSF8, Q8NHQ8", "remark": "another data set of the same source", "values": [
      {"variant": "R361H", "effect of a mutation on the interaction": "with no effect"}
    ]},
    {"variants_of": "B2", "settings": "with rel_human REL", "values": [
      {"variant": "G386D", "effect of a mutation on the interaction": "with no effect"}
    ]},
    {"variants_of": "B3", "settings": "with sdhb_human SDHB", "values": [
      {"variant": "G386D", "effect of a mutation on the interaction": "with no effect"}
    ]},
    {"variants_of": "B3", "settings": "with sdhb_human SDHB", "remark": "another data set of the same source", "values": [
      {"variant": "G386D", "effect of a mutation on the interaction": "increasing interaction strength"}
    ]},
    {"variants_of": "B3", "settings": "with sdhb_human SDHB", "remark": "another data set of the same source", "values": [
      {"variant": "R361C", "effect of a mutation on the interaction": "with no effect"}
    ]},
    {"variants_of": "B4", "settings": "with sem4f_human SEMA4F", "values": [
      {"variant": "G386D", "effect of a mutation on the interaction": "with no effect"}
    ]},
    {"variants_of": "B4", "settings": "with sem4f_human SEMA4F", "remark": "another data set of the same source", "values": [
      {"variant": "G386D", "effect of a mutation on the interaction": "causing an interaction"}
    ]}
  ]
}
